In patent US20220356229A1 (published 2022):
Residue numbers refer to the chain shown, from its start.

T1: HKU1 full length Spike (human coronavirus HKU1, UniProt Q5MQD0 13-1276)
T1 sequence: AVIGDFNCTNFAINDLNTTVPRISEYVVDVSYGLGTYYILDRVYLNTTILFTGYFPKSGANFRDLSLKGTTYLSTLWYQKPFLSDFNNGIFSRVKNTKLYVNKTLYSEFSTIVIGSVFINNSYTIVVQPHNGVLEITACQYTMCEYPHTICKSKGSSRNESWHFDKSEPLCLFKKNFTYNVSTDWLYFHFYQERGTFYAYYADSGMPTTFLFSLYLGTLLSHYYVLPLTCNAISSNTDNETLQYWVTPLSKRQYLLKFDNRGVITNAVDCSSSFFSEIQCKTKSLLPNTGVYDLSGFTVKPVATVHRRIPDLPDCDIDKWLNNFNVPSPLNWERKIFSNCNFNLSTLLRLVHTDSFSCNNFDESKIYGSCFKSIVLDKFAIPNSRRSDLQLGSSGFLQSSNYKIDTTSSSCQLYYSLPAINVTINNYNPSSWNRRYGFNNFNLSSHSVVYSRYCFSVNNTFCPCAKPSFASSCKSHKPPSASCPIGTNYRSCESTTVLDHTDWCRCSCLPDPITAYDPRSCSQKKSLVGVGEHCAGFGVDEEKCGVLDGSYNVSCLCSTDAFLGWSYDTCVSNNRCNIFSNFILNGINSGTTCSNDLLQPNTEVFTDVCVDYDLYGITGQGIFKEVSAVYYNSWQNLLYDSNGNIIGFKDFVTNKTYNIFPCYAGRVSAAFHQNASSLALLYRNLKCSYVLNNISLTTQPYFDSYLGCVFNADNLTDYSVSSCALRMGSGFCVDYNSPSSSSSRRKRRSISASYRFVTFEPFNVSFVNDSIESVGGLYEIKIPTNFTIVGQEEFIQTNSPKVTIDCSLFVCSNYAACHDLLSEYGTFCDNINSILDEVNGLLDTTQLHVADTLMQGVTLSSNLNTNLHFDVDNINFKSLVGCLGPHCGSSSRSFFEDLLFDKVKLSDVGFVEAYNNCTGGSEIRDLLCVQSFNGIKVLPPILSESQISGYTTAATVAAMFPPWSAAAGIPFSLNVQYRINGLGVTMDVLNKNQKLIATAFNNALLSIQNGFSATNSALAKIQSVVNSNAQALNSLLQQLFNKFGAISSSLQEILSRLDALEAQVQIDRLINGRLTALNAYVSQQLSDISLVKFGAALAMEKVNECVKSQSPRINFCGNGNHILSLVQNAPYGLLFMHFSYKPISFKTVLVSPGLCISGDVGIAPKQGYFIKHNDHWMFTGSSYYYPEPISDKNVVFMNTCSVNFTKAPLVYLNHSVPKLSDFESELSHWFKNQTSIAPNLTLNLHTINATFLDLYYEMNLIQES

T2: MERS full length Spike (MERS-CoV, UniProt K9N5Q8 18-1291)
T2 sequence: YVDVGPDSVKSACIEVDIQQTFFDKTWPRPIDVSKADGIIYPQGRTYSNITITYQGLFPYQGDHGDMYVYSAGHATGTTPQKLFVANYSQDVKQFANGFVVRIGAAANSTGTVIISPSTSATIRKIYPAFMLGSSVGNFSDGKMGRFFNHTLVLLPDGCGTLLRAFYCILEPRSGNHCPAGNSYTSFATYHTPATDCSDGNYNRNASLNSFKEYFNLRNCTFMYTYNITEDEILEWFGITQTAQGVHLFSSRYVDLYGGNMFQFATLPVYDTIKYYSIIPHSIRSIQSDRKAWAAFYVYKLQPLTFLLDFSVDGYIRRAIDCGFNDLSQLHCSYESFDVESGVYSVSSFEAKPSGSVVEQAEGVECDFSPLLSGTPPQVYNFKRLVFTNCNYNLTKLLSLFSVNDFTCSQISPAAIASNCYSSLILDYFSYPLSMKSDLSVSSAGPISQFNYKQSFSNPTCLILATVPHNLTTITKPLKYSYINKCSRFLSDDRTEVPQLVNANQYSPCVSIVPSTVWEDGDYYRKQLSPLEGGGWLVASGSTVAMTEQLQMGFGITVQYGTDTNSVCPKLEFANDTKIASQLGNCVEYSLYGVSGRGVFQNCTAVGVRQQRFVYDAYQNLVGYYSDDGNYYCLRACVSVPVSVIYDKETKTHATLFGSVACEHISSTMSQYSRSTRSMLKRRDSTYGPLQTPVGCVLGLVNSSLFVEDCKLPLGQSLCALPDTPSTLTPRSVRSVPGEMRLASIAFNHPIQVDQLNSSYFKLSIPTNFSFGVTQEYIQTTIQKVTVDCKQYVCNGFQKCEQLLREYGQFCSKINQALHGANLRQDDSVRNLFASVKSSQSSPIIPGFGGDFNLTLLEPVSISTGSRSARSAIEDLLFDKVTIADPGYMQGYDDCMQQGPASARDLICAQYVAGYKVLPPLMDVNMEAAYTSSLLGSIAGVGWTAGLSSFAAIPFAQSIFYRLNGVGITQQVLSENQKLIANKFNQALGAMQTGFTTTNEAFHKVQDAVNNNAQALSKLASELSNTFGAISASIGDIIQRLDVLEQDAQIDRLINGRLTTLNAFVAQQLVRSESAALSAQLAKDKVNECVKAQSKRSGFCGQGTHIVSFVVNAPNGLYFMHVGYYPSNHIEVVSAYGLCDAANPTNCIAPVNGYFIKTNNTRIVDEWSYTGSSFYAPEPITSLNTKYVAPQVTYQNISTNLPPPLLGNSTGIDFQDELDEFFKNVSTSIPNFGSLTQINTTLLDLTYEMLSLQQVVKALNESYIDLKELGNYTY

B1: mAb 1444 (antibody, V domains shown)
VH: QVQLVQSGAEVKKPGASVKVSCKASGYTFTAYYMHWVRQAPGQGLEWMGWINPNSDDTNYAQKFQGRVTMTRDTSISTAYMELSRLRSDDTAVYYCAREEGVFTIGDRYFDLWGRGTLVSVSS
VL: QTVVTQEPSFSVSPGGTVTLTCGLSSGSVSTSYYPSWYQQTPGQAPRTLIYNTNTRSSGVPDRFSGSILGNKAALTITGAQADDESDYYCVLYMGSGIWVFGGGTKLTVLG
B2: mAb 1538 (antibody, V domains shown)
VH: EVQLLESGGGLVQPGGSLRLSCAASGFTFSSYAMSWVRQAPGKGLEWVSGISDSGGSTYYADYVKGRFTISRDNSKDTLYLQMNSLRAEDTAVYYCAKDRGNEYALTHYYYYAMDVWGQGTTVTVSS
VL: DIQMTQSPSSLSASVGDRVTITCRASQSISSYLNWYQQKPGKAPKLLIYAAYSLQSGVPSRFSGGGSGTDFTLTISSLQPEDFATYFCQQSYSTPITFGQGTRLEIKR
B3: mAb 1585 (antibody, V domains shown)
VH: QVQLVESGGGVVQPGRSLRLSCAASGFTFSRFTLHWVRQAPGKGLEWVAVISYDGSNKYYADSVKGRFTISRDNSKSTLYLQMNSLRAEDTGVYYCARDPSTVTGYFDYWGQGTLVTVSS
VL: SYVLTQPPSVSVAPGKTAKISCGGDSIGSKSVHWYQQKPGQAPVLVIYYDNDRPSGIPERFSGSNSGNTATLTISRVEAGDEADYYCQVWDIGVVFGGGTKLTVLG
B4: mAb 1495 (antibody, V domains shown)
VH: QVQLVESGGGVVQPGRSLRLSCTASGFTFSSYAMHWVRQAPGKGLEWVAVISYDGNNKYYGDSVKGRFTISRDNSKNTLYLQMNSLRAEDTAVYYCAKGADTPHYSGYHFLSVGYYFYGMDVWGQGTTVTVSS
VL: DIQMTQSPSSLSASVGDRVTITCRASQSISYYLNWYQQKPGKAPQLLIYAASSLQSGVPSRFSGSRSGTDFTLTISSLQPEDFATYYCQQSYSTPFTFGPGTKVDIKR
B5: antibody 266 (antibody, V domains shown)
VH: QVQLVESGGGVVQPGRSLRLSCAASGFNLSNYAMHWVRQPSGKGLEWVSLISYDGSIKYYTDSVKGRFTVSGDNSKNTLFLQMNSLRPDDSALYYCVRGGVSGPNSFDMWGQGTTVTVSS
VL: DVVMTQSPLSLPVTLGQPASISCRSSQSLVYSDGNTYVNWFQQRPGQSPRRLIYQVSIRASGVPDRFSGSGSGTDFALKISRVEAEDVGVYYCMQGTHWPVTFGQGTKVEIK
B6: antibody 303 (antibody, V domains shown)
VH: B5 VH with N31S, P40A, T61A, T78M, P88A, S106A, M109I
VL: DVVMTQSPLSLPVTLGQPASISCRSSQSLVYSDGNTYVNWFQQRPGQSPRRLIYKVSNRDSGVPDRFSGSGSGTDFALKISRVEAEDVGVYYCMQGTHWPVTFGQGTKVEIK
B7: antibody 295 (antibody, V domains shown)
VH: QVQLQESGPGLVKPSQTLSLTCTVSGGSISSSDYYWSWIRQPPGKGLEWIGYIYYSGSTYYNPSLKSRVTISVDTSKNQFSLKLSSVTAADTAVYYCARVVGYCSSTSCYVDYWGQGTLVTVSS
VL: EIVLTQSPATLSLSPGERVTLSCRASQSVSSYLAWYQQKPGQAPRLLIYDASNRATGIPARFSGSGSGTDFTLTISSLEPEDFAVYYCQQRSNWPPGLTFGGGTKVEIK
B8: antibody 288 (antibody, V domains shown)
VH: EVQLVESGGGLVQPGGSLRLSCAASGFTFSSYDMHWVRQATGKGLEWVSAIGTAGDTYYPGSVKGRFTISRENAKNSLYLQMNSLRAGDTAVYYCARGANRDYDILTGYYSYYYYGMDVWGQGTTVTVSS
VL: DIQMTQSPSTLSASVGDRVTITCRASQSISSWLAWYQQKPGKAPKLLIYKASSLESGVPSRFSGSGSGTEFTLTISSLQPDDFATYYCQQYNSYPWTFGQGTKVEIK
B9: antibody 300 (antibody, V domains shown)
VH: QVQLVESGGGVVQPGRSLTLSCAASGFTFSSYAMHWVRQAPGKGLEWVALISYDGNNKYYADSVKGRFTFSRDNSKNTLYLQMNSLRAEDTAVYYCARTNSGSYRTAFDYWGQGTLVTVSS
VL: DIQMTQSPSTLSASVGDRVTITCRASQSISIWLAWYQQKPGKAPKLLIYKASSLESGVPSRFSGSGSGTEFTLTISSLQPDDFATYYCQQYNSLWTFGQGTKVEIK
B10: antibody 263 (antibody, V domains shown)
VH: EVQLVQSGAEVKKPGATVKISCKVSGYTFTDYYMHWVQQAPGKGLEWMGLVDPEDGETIYAEKFQGRVTITADTSTDTAYMELSSLRSDDTAVYYCTTDLAFTIFGGRRGFDPWGQGTLVTVSS
VL: DIQLTQSPSFLSASVGDRVTITCRASQGISSYLAWYQQKPGKAPKLLIYAASTLQSGVPSRFSGSGSGTEFTLTISSLQPEDFATYYCQQLNSYDFGQGTRLEIK
B11: antibody 260 (antibody, V domains shown)
VH: EVQLVESGGGLVQPGRSLRLSCAASGFTFDYYAMHWVRQAPGKGLEWVSGISWNSGTIGYADSVKGRFTISRDNAKNSLYLQMNSLRAEDTALYYCAKDSRPSGRYYYGMDVWGQGTTVTVSS
VL: not shown
B12: antibody 301 (antibody, V domains shown)
VH: QVQLVQSGAEVKKPGASVKVSCKVSGYTLTELSMHWVRQAPGKGLEWMGGFDPEDGETIYAQKFQGRVTMTEDTSTDTAYMELSSLRSEDTAVYYCATAFCGGDCYPPDALDIWGQGTMVTVSS
VL: DIQMTQSPSSVSASVGDRVTITCRASQGISSWLAWYQQKPGKAPKLLIYAASSLQSGVPSRFSGSGSGTDFTLTISSLQPEDFATYYCQQANSFPLTFGGGTKVEIK
B13: antibody 294 (antibody, V domains shown)
VH: EVQLVESGGGLVQPGGSLRLSCAASGFTVSSNYMNWVRQAPGKGLEWVSVIYSGGSTYYADSVKGRFTISRDNSKNTLYLQMNSLRAEDTAVYYCARDLGPSGMDVWGQGTTVTVSS
VL: DIQMTQSPSSVSASVGDRVTITCRASQGISSWLAWYQQKPGKAPKLLIYAASSLQSGVPSRFSGSGSGTDFTLTISSLQPEDFATYYCQQANSFPLFGGGTKVEIK

molecular target: T1, HKU1 full length Spike

Binder	median fluorescence intensity, fold over isotype control [fold over isotype]
B1	0.98
B2	0.97
B3	0.88
B4	1.05

molecular target: T2, MERS full length Spike

Binder	median fluorescence intensity, fold over isotype control [fold over isotype]
B1	0.98
B2	0.95
B3	0.94
B4	0.93

molecular target: SARS-CoV full length Spike (SARS-CoV, UniProt P59594 14-1190)

Binder	median fluorescence intensity, fold over isotype control [fold over isotype]
B1	1.03
B2	0.99
B3	25.8
B4	1.08

molecular target: SARS-CoV-2 Spike (S) protein, wild type, full length (SARS-CoV-2, UniProt P0DTC2 14-1208)

Binder	bead binding signal (fold over isotype)
B5	473
B6	341
B7	599
B8	495
B9	721
B10	722
B11	724
B12	865
B13	1230
